Results reported in the supplement of paper PMC10567573.

B1: PPP2R2B (parent)
chain: RNTKRDVTLEASRENSKPRAILKP
B2: GNB5 (parent)
chain: DINSVRYYPSGDAFASGSDDATCR

Variants of: B1
Experiment: protein stability index of a GFP-peptide fusion (GPS, HEK-293T) (PSI 1-6); higher = more stable
Settings: c terminus: a fixed tail appended
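Note: lentivirally expressed fusions sorted by FACS into six bins by GFP to DsRed ratio, PSI derived from sequencing read proportions per bin multiplied by bin number.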

Point of comparison: RNTKRDVTLEASRENSKPRTILKP, protein stability index 4.49. Against it:
- RNTKRDVTLEASRENSKPRAILWP — lower, 4.33
- RNTKRDVTLEASRENSKPRAILRP — lower, 4.04
- RNTKRDVTLEASRENSKPRAILEP — higher, 4.5
- RNTKRDVTLEASRENSKPRAILGP — lower, 4.48
- RNTKRDVTLEASRENSKPRAILVP — lower, 4.31
- RNTKRDVTLEASRENSKPRAILAP — higher, 4.5
- RNTKRDVTLEASRENSKPRAILIP — lower, 4.04
- RNTKRDVTLEASRENSKPRAILFP — lower, 3.48
- RNTKRDVTLEASRENSKPRAILMP — lower, 3.94
- RNTKRDVTLEASRENSKPRAILCP — lower, 4.25
- RNTKRDVTLEASRENSKPRAILQP — higher, 4.89
- RNTKRDVTLEASRENSKPRAILNP — lower, 4.18
- RNTKRDVTLEASRENSKPRAILHP — higher, 4.57
- RNTKRDVTLEASRENSKPRAILPP — higher, 4.5
- RNTKRDVTLEASRENSKPRAILDP — higher, 4.79
- RNTKRDVTLEASRENSKPRAILSP — higher, 4.56
- RNTKRDVTLEASRENSKPRAILTP — higher, 4.67
- RNTKRDVTLEASRENSKPRAILYP — lower, 4.38
- RNTKRDVTLEASRENSKPRAILLP — lower, 3.91
- RNTKRDVTLEASRENSKPVAILKP — higher, 4.72
- RNTKRDVTLEASRENSKPCAILKP — higher, 4.69
- RNTKRDVTLEASRENSKPFAILKP — lower, 4.12
- RNTKRDVTLEASRENSKPNAILKP — higher, 4.7
- RNTKRDVTLEASRENSKPDAILKP — higher, 4.86
- RNTKRDVTLEASRENSKPAAILKP — lower, 4.2
- RNTKRDVTLEASRENSKPGAILKP — higher, 4.86
- RNTKRDVTLEASRENSKPQAILKP — higher, 4.75
- RNTKRDVTLEASRENSKPPAILKP — higher, 4.79
- RNTKRDVTLEASRENSKPKAILKP — higher, 4.7
- RNTKRDVTLEASRENSKPEAILKP — higher, 5.04
- RNTKRDVTLEASRENSKPWAILKP — lower, 3.98
- RNTKRDVTLEASRENSKPTAILKP — higher, 4.52
- RNTKRDVTLEASRENSKPYAILKP — lower, 4.21
- RNTKRDVTLEASRENSKPHAILKP — lower, 4.46
- RNTKRDVTLEASRENSKPIAILKP — lower, 4.39
- RNTKRDVTLEASRENSKPSAILKP — lower, 4.41
- RNTKRDVTLEASRENSKPMAILKP — lower, 4.44
- RNTKRDVTLEASRENSKPLAILKP — higher, 4.7
- RNTKRDVTLEASRENSKPRAILKQ — lower, 4.47
- RNTKRDVTLEASRENSKPRAILKS — the same, 4.49
- RNTKRDVTLEASRENSKPRAILKE — higher, 4.74
- RNTKRDVTLEASRENSKPRAILKI — lower, 3.32
- RNTKRDVTLEASRENSKPRAILKV — lower, 4
- RNTKRDVTLEASRENSKPRAILKR — lower, 4.13
- RNTKRDVTLEASRENSKPRAILKL — lower, 4
- RNTKRDVTLEASRENSKPRAILKD — lower, 3.69
- RNTKRDVTLEASRENSKPRAILKY — lower, 3.58
- RNTKRDVTLEASRENSKPRAILKN — higher, 4.82
- RNTKRDVTLEASRENSKPRAILKH — lower, 4.41
- RNTKRDVTLEASRENSKPRAILKK — lower, 4.26
- RNTKRDVTLEASRENSKPRAILKC — lower, 4.44
- RNTKRDVTLEASRENSKPRAILKA — higher, 4.74
- RNTKRDVTLEASRENSKPRAILKM — lower, 4.06
- RNTKRDVTLEASRENSKPRAILKF — lower, 3.56
- RNTKRDVTLEASRENSKPRAILKW — lower, 3.55
- RNTKRDVTLEASRENSKPRAILKG — higher, 4.65
- RNTKRDVTLEASRENSKPRAILKT — higher, 4.88
- RNTKRDVTLEASRENSKPREILKP — higher, 5
- RNTKRDVTLEASRENSKPRKILKP — higher, 5.04
- RNTKRDVTLEASRENSKPRSILKP — lower, 4.48
- RNTKRDVTLEASRENSKPRFILKP — lower, 4.03
- RNTKRDVTLEASRENSKPRIILKP — lower, 4.32
- RNTKRDVTLEASRENSKPRYILKP — lower, 4.1
- RNTKRDVTLEASRENSKPRMILKP — higher, 4.65
- RNTKRDVTLEASRENSKPRNILKP — higher, 4.64
- RNTKRDVTLEASRENSKPRRILKP — higher, 4.66
- RNTKRDVTLEASRENSKPRLILKP — lower, 4.19
- RNTKRDVTLEASRENSKPRHILKP — higher, 4.85
- RNTKRDVTLEASRENSKPRVILKP — lower, 4.38
- RNTKRDVTLEASRENSKPRPILKP — lower, 4.3
- RNTKRDVTLEASRENSKPRDILKP — higher, 4.64
- RNTKRDVTLEASRENSKPRCILKP — lower, 4.17
- RNTKRDVTLEASRENSKPRQILKP — lower, 4.44
- RNTKRDVTLEASRENSKPRGILKP — lower, 4.39
- RNTKRDVTLEASRENSKPRWILKP — lower, 3.3
- RNTKRDVTLEASRENSKPRAKLKP — higher, 4.83
- RNTKRDVTLEASRENSKPRATLKP — higher, 4.5
- RNTKRDVTLEASRENSKPRAVLKP — higher, 4.6
- RNTKRDVTLEASRENSKPRACLKP — higher, 4.85
- RNTKRDVTLEASRENSKPRARLKP — higher, 5.35
- RNTKRDVTLEASRENSKPRAGLKP — higher, 4.99
- RNTKRDVTLEASRENSKPRAMLKP — higher, 4.67
- RNTKRDVTLEASRENSKPRAPLKP — higher, 5.15
- RNTKRDVTLEASRENSKPRAFLKP — lower, 4.3
- RNTKRDVTLEASRENSKPRASLKP — higher, 4.78
- RNTKRDVTLEASRENSKPRALLKP — higher, 4.68
- RNTKRDVTLEASRENSKPRAWLKP — higher, 4.7
- RNTKRDVTLEASRENSKPRAYLKP — higher, 4.5
- RNTKRDVTLEASRENSKPRAELKP — higher, 5.34
- RNTKRDVTLEASRENSKPRAQLKP — higher, 4.8
- RNTKRDVTLEASRENSKPRANLKP — higher, 4.68
- RNTKRDVTLEASRENSKPRAALKP — higher, 4.8
- RNTKRDVTLEASRENSKPRADLKP — higher, 5.3
- RNTKRDVTLEASRENSKPRAHLKP — higher, 4.52
- RNTKRDVTLEASRENSKPRAIVKP — higher, 4.72
- RNTKRDVTLEASRENSKPRAIAKP — higher, 4.99
- RNTKRDVTLEASRENSKPRAIDKP — higher, 5.09
- RNTKRDVTLEASRENSKPRAIYKP — lower, 4.37
- RNTKRDVTLEASRENSKPRAIEKP — higher, 5.31
- RNTKRDVTLEASRENSKPRAIHKP — higher, 4.8
- RNTKRDVTLEASRENSKPRAINKP — higher, 4.79
- RNTKRDVTLEASRENSKPRAIGKP — higher, 4.69
- RNTKRDVTLEASRENSKPRAITKP — the same, 4.49
- RNTKRDVTLEASRENSKPRAIMKP — lower, 4.33
- RNTKRDVTLEASRENSKPRAIIKP — lower, 4.2
- RNTKRDVTLEASRENSKPRAIFKP — higher, 4.5
- RNTKRDVTLEASRENSKPRAICKP — lower, 4.47
- RNTKRDVTLEASRENSKPRAIRKP — higher, 4.75
- RNTKRDVTLEASRENSKPRAIWKP — lower, 3.98
- RNTKRDVTLEASRENSKPRAISKP — higher, 4.9
- RNTKRDVTLEASRENSKPRAIPKP — lower, 4.28
- RNTKRDVTLEASRENSKPRAIKKP — higher, 5.11
- RNTKRDVTLEASRENSKPRAIQKP — higher, 4.92
- RNTKRDVTLEASRENSKLRAILKP — lower, 4.27
- RNTKRDVTLEASRENSKMRAILKP — higher, 4.58
- RNTKRDVTLEASRENSKQRAILKP — higher, 4.76
- RNTKRDVTLEASRENSKRRAILKP — higher, 4.79
- RNTKRDVTLEASRENSKYRAILKP — lower, 3.62
- RNTKRDVTLEASRENSKTRAILKP — higher, 4.54
- RNTKRDVTLEASRENSKNRAILKP — higher, 4.55
- RNTKRDVTLEASRENSKSRAILKP — higher, 4.72
- RNTKRDVTLEASRENSKWRAILKP — lower, 3.87
- RNTKRDVTLEASRENSKVRAILKP — lower, 4.32

Variants of: B2
Experiment: as above
Settings: c terminus: a fixed tail appended

Point of comparison: DINSVRYYPSGMAFASGSDDATCR, protein stability index 2.7. Against it:
- DINSVRYYRSGDAFASGSDDATCR — higher, 3.69
- DINSMRYYPSGDAFASGSDDATCR — higher, 3.92
- DINSTRYYPSGDAFASGSDDATCR — higher, 4.28
- DINSFRYYPSGDAFASGSDDATCR — higher, 3.74
- DINSIRYYPSGDAFASGSDDATCR — higher, 4.19
- DINSVRYYPSGDAFASGSDDATCE — higher, 4.71
- DINSVRYYPSGDAFASGSDDATCQ — higher, 4.68
- DINGVRYYPSGDAFASGSDDATCR — higher, 3.6
- DINIVRYYPSGDAFASGSDDATCR — higher, 3.55
- DINKVRYYPSGDAFASGSDDATCR — higher, 4.08
- DINTVRYYPSGDAFASGSDDATCR — higher, 4.23
- DINSVRYYPSGDAIASGSDDATCR — higher, 4.49
- DINSVRYYPSGDAMASGSDDATCR — higher, 3.85
- DINSVRYYPSGDAQASGSDDATCR — higher, 4.44
- DINSVRYYPSGDAPASGSDDATCR — higher, 4.38
- DINSVRYYPSGDAFASGSDDYTCR — higher, 3.19
- DINSVRYYPSGDAFASGSDDVTCR — higher, 3.72
- DINSVRYYPSGDAFASGSDDDTCR — higher, 4.34
- DINSVRYKPSGDAFASGSDDATCR — higher, 3.79
- DINSVRYCPSGDAFASGSDDATCR — higher, 4.43
- DINSVRYYPCGDAFASGSDDATCR — higher, 3.49
- DINSVRYYPHGDAFASGSDDATCR — higher, 3.65
- DINSVRYYPFGDAFASGSDDATCR — higher, 3.3
- DINSVRYYPSGKAFASGSDDATCR — higher, 3
- DINSVRYYPSGCAFASGSDDATCR — lower, 2.66
- DINSVRYYPSGGAFASGSDDATCR — higher, 3.54
- DINSVRYYPSGDAFASGSDDAMCR — higher, 3.47
- DINSVRYYPSGDAFASGSDDAKCR — higher, 4.07
- DINSVRYYPSGDAFASGSDDAFCR — higher, 3.42
- DINSVRYYPSGDAFASGSDDASCR — higher, 3.91
- DINSVRYYPSGDAFASGSDDALCR — higher, 3.72
- DINSVRYYPSGDAFASGSDDANCR — higher, 4.01
- DINSVRYYPSGDAFASGSVDATCR — lower, 2.69
- DINSVRYYPSGDAFASGSLDATCR — higher, 3.14
- DINSVRYYPSGDAFASGSRDATCR — higher, 3.06
- DINSVRYYPSGDAFLSGSDDATCR — higher, 3.73
- DINSVRYYPSGDAFESGSDDATCR — higher, 4.09
- DINSVRYYPSGDAFDSGSDDATCR — higher, 4.16
- DINSVPYYPSGDAFASGSDDATCR — higher, 4.29
- DINSVSYYPSGDAFASGSDDATCR — higher, 4.41
- DINSVDYYPSGDAFASGSDDATCR — higher, 4.58
- DINSVRYYPSGDKFASGSDDATCR — higher, 3.53
- DINSVRYYPSGDAFASPSDDATCR — higher, 4.05
- DINSVRYYPSGDAFASTSDDATCR — higher, 3.63
- DINSVRYYPSGDAFASWSDDATCR — higher, 3.07
- DFNSVRYYPSGDAFASGSDDATCR — higher, 3.98
- DGNSVRYYPSGDAFASGSDDATCR — higher, 4.54
- DMNSVRYYPSGDAFASGSDDATCR — higher, 4.1
- DCNSVRYYPSGDAFASGSDDATCR — higher, 4.32
- DKNSVRYYPSGDAFASGSDDATCR — higher, 4.68
- DYNSVRYYPSGDAFASGSDDATCR — higher, 4.32
- YINSVRYYPSGDAFASGSDDATCR — lower, 2.5
- EINSVRYYPSGDAFASGSDDATCR — higher, 4.1
- DINSVRYYPSGDAFASGSDDATNR — higher, 3.95
- DINSVRTYPSGDAFASGSDDATCR — higher, 4.64
- DINSVRYYPSIDAFASGSDDATCR — higher, 3.59
- DINSVRYYPSGDAFAKGSDDATCR — higher, 3.34
- DINSVRYYPSGDAFAPGSDDATCR — higher, 3.88
- DINSVRYYPSGDAFAHGSDDATCR — higher, 3.84
- DINSVRYYPSGDAFALGSDDATCR — higher, 3.58
- DINSVRYYPSGDAFASGSDNATCR — higher, 3.42
- DINSVRYYPSGDAFASGSDEATCR — higher, 3.94
- DIMSVRYYPSGDAFASGSDDATCR — higher, 3.42
